Experimental data from patent US20260015417A1 (MEDIMABBIO, published 2026).

Biological target: T1, recombinant human TIGIT protein (Acrobiosystems) (human, UniProt Q495A1 22-141)
T1 construct: Bought recombinant protein; NP_776160.2; UniProt Q495A1-1
T1 sequence: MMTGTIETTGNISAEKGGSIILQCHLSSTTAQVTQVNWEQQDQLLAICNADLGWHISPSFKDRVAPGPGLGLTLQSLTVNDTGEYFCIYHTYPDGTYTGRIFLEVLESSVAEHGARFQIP
Assay: ELISA, plate coated with recombinant human TIGIT at 1 ug/ml, serial 1:3 dilutions from 61.097 nM, detection with anti-mouse/human IgG-HRP, OD 450 nm
Experimental: An ELISA plate was coated with recombinant human TIGIT protein (Acrobiosystems, China) at a concentration of 1 μg/ml dissolved in PBS (Phosphate-Buffered Saline) and incubated overnight at 4° C. The plate was blocked with blocking buffer (3% (v/v) skim milk in PBS) for 1 hour, and serially diluted anti-TIGIT monoclonal antibody (7A6) and the fusion protein ([7A6]-[TL-2]-[IL-15]; denoted as ‘7A615TL-2’) (starting concentration: 61.097 nM; serial 1:3 dilutions) were added to the coated plate. After incubation, anti-mouse/human IgG-HRP antibody (Abcam: 1:10000 dilution) was added to each well. The plate was developed with TMB solution and stopped with 1N HCl. The OD value was read at 450 nm using the GloMax® Explorer Fully Loaded.

EC50 (read off the curve): ~2 nM
B1: anti-TIGIT monoclonal antibody 7A6 (7A6_VH3/Vk5) (antibody, human IgG1, kappa, V domains shown)
VH: QVQLQESGPGLVKPSQTLSLTCTVTGYSITSDYAWNWIRQPPGKGLEWMGYISYSGSARYNPSLKSRVTISRDTSKNQFSLKLSSVTAEDTATYYCARKGYPAYFAYWGQGTLVTVSS
VL: DIQMTQSPSSLSASVGDRVSITCKASQDVSTAVAWYQQKPGQAPRLLIYSASYRYTGVPDRFSGSGSGTDFTLTISSLQPEDFATYYCQHHYSTPYTFGQGTKLEIKR
notes: also called parent antibody; TIGIT mAb
